Measurements from patent US20100278838A1, “EPHA2 MONOCLONAL ANTIBODIES AND METHODS OF USE THEREOF” (MEDIMMUNE, LLC, priority 2002, published 2010).
Entries after “also recorded” stand apart in the source; their conditions may differ.

B1: Eph099B-208.261: EphA2 monoclonal antibody; hybridoma ATCC PTA-4573; VL SEQ ID NO:1, VH SEQ ID NO:5 (antibody, listed as Homo sapiens, V domains shown)
VH: QVQLQQPGAELVKPGASVKLSCKASGYTFTSYWMHWVKQRPGQGLEWIGMIHPNSGSTNYNEKFKSKATLTVDKSSSTAYMRLSSLTSEDSAVYYCARGGNMVGGGYWGQGTTLTVSS
VL: QIVLTQSPALMSASPGEKVTMTCSASSSVSYMYWYQQKPRSSPKPWIYLTTNLASGVPARFSGSGSGTSYSLTISSMEAEDAATYYCQQWSSNPFTFGSGTKLEIR
B2: Eph099B-233.152: EphA2 monoclonal antibody; hybridoma ATCC PTA-5194; VL SEQ ID NO:17, VH SEQ ID NO:21 (antibody, listed as Homo sapiens, V domains shown)
VH: EVKLVESGGGLVQPGGSLSLSCAASGFTFTDYSMNWVRQPPGKALEWLGFIRNKANDYTTEYSASVKGRFTISRDNSQSILYLQMNALRAEDSATYYCVRYPRYHAMDSWGQGTSVTVSS
VL: DIVLTQSPATLSVTPGDSVNLSCRASQSISNNLHWYQQKSHESPRLLIKYVFQSISGIPSRFSGSGSGTDFTLSINSVETEDFGMYFCQQSNSWPLTFGAGTKLELK
B3: EA2: EphA2 agonistic monoclonal antibody; ATCC deposit no. PTA-4380; co-pending application Ser. No. 10/436,783; VL SEQ ID NO:33, VH SEQ ID NO:37 (antibody, listed as Homo Sapiens, V domains shown)
VH: DVKLVESGGGLVKPGGSLKLSCAASGFTFSSYTMSWVRQTPEKRLEWVATISSGGTYTYYPDSVKGRFTISRDNAKNTLYLQMSSLKSEDTAMYYCTREAIFTYWGQGTLVTVSA
VL: DIKMTQSPSSMYASLGERVTITCKASQDINNYLSWFQQKPGKSPKTLIYRANRLVDGVPSRFSGSGSGQDYSLTISSLEYEDMGIYYCLKYDEFPYTFGGGTKLEIK

Tests used:
EphA2 [1] = experiment: EphA2 tyrosine phosphorylation in MDA-MB-231 cells (immunoprecipitation, phosphotyrosine western blot); type: cell-based; details: MDA-MB-231 monolayers, single dose 5 μg/ml, 37° C.
Sequence of EphA2 (P29317 24-976): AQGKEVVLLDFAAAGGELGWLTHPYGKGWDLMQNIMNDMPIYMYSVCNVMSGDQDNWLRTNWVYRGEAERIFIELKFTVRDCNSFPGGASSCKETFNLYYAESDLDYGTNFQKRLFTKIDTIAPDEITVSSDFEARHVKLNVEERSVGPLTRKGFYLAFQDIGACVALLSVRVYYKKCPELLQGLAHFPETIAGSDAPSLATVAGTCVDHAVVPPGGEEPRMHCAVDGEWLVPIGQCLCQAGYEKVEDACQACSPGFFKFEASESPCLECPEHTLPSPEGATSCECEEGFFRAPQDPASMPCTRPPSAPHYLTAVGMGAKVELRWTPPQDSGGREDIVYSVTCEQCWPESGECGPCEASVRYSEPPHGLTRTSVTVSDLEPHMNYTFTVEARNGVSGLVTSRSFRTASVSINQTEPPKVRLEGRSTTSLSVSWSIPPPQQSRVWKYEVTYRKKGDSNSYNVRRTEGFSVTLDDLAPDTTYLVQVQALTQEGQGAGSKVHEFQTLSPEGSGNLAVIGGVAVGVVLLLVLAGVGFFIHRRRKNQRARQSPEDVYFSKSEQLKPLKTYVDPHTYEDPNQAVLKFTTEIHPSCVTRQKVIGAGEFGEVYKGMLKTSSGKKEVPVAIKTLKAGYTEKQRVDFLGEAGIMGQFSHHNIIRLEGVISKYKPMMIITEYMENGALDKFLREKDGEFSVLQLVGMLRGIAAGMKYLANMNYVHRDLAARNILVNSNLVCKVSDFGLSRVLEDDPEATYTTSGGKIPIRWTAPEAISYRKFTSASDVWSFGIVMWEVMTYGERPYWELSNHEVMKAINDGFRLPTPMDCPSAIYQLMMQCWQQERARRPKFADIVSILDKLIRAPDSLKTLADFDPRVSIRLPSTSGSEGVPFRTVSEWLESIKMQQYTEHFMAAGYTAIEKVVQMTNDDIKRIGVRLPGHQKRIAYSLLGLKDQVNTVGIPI
Protocol: FIGS. 2A-2D: EphA2 antibodies promote EphA2 tyrosine phosphorylation in MDA-MB-231 cells. Monolayers of MDA-MB-231 cells were incubated in the presence of a single dose of 5 μg/ml (A, C) Eph099B-208.261 or (B, D) EA2 for the indicated time at 37° C. Cell lysates were then immunoprecipitated with an EphA2-specific antibody, resolved by SDS-PAGE and subjected to western blot analysis with a phosphotyrosine-specific antibody (A, B). The membranes were stripped and re-probed with the EphA2-specific antibody used in the immunoprecipitation as a loading control (C, D).
(§1) Monolayers of MDA-MB-231 cells were incubated in the presence of a single dose of 5 μg/ml Eph099B-233.152 at 37° C. Cell lysates were then immunoprecipitated with D7 (an EphA2-specific antibody), resolved by SDS-PAGE and subjected to western blot analysis with (A) a phosphotyrosine-specific antibody or (B) an EphA2-specific antibody.
EphA2 antibodies promoted tyrosine phosphorylation and degradation of EphA2 in MDA-MB-231 cells. Monolayers of cells were incubated in the presence of EphA2 agonistic antibodies or control at 37° C. Cell lysates were then immunoprecipitated with an EphA2-specific antibody (D7, purchased from Upstate Biologicals, Inc., Lake Placid, N.Y. and deposited with the American Type […] Collection on Dec. 8, 2000, and assigned ATCC number PTA 2755), resolved by SDS-PAGE and subjected to western blot analysis with a phosphotyrosine-specific antibody (PY20 or 4G10, purchased from Upstate Biologicals, Inc., Lake Placid, N.Y.). […] Some membranes were stripped and re-probed with the EphA2-specific antibody used in the immunoprecipitation (D7) as a loading control (FIGS. 2C-2D).
Western blot analyses and immunoprecipitations were performed as described previously (Zantek et al., 1999, Cell Growth Diff. 10:629-38, which is incorporated by reference in its entirety). […] Antibody binding was detected by enhanced chemiluminescence (Pierce, Rockford, Ill.) and autoradiography (Kodak X-OMAT; Rochester, N.Y.).

EphA2 [2] = experiment: EphA2 degradation / protein level in MDA-MB-231 cells (western blot); type: cell-based; details: MDA-MB-231 monolayers, single dose 5 μg/ml, 37° C.
Protocol: Monolayers of MDA-MB-231 cells were incubated in the presence of a single dose of 5 μg/ml (A, C) Eph099B-208.261 or (B, D) EA2 for the indicated time at 37° C. Cell lysates were then resolved by SDS-PAGE and subjected to western blot analysis with an EphA2-specific antibody (A, B). The membranes were stripped and re-probed with a β-catenin-specific antibody as a loading control (C, D).
as §1
Monolayers of MDA-MB-231 cells were incubated in the presence of EphA2 agonistic antibodies at 37° C. Cell lysates were then resolved by SDS-PAGE and subjected to western blot analysis with an EphA2-specific antibody (D7). […] Some membranes were stripped and re-probed with a β-catenin-specific antibody as a loading control (FIGS. 3C-3D). […] Decreased EphA2 expression is due, in part, to deceased mRNA expression levels in response to EphA2 protein degradation caused by agonistic antibody binding (data not shown).
Western blot analyses and immunoprecipitations were performed as described previously (Zantek et al., 1999, Cell Growth Diff. 10:629-38, which is incorporated by reference in its entirety). Briefly, detergent extracts of cell monolayers were extracted in Tris-buffered saline containing 1% Triton X-100 (Sigma, St. Louis, Mo.). After measuring protein concentrations (BioRad, Hercules, Calif.), 1.5 mg of cell lysate was immunoprecipitated, resolved by SDS-PAGE and transferred to nitrocellulose (PROTRAN™, Schleicher and Schuell, Keene, N.H.). Antibody binding was detected by enhanced chemiluminescence (Pierce, Rockford, Ill.) and autoradiography (Kodak X-OMAT; Rochester, N.Y.).

Row | Molecule | EphA2 tyrosine phosphorylation (EphA2 [1]) | EphA2 protein level (EphA2 [2])
1 | B1 | increased EphA2 phosphorylation | decreased EphA2 protein level
2 | B2 | increased EphA2 phosphorylation; also recorded: promotes EphA2 tyrosine phosphorylation | decreased EphA2 protein level; also recorded: EphA2 degradation
3 | B3 | increased EphA2 phosphorylation | decreased EphA2 protein level
